The data set concerns the molecule itself. As to the kind of experiment: crystal structure; hanging-drop vapour diffusion, 16-17.8% PEG6000 or PEG3350, 0.1 M MES pH 6.0, 20 °C; space group C2, four molecules (two dimers) in the asymmetric unit.

B1: α-ketoisovalerate decarboxylase Kivd^S286T (enzyme, Lactococcus lactis)
chain: MYTVGDYLLDRLHELGIEEIFGVPGDYNLQFLDQIISHKDMKWVGNANELNASYMADGYARTKKAAAFLTTFGVGELSAVNGLAGSYAENLPVVEIVGSPTSKVQNEGKFVHHTLADGDFKHFMKMHEPVTAARTLLTAENATVEIDRVLSALLKERKPVYINLPVDVAAAKAEKPSLPLKKENSTSNTSDQEILNKIQESLKNAKKPIVITGHEIISFGLEKTVTQFISKTKLPITTLNFGKSSVDEALPSFLGIYNGTLSEPNLKEFVESADFILMLGVKLTDTSTGAFTHHLNENKMISLNIDEGKIFNERIQNFDFESLISSLLDLSEIEYKGKYIDKKQEDFVPSNALLSQDRLWQAVENLTQSNETIVAEQGTSFFGASSIFLKSKSHFIGQPLWGSIGYTFPAALGSQIADKESRHLLFIGDGSLQLTVQELGLAIREKINPICFIINNDGYTVEREIHGPNQSYNDIPMWNYSKLPESFGATEDRVVSKIVRTENEFVSVMKEAQADPNRMYWIELILAKEGAPKVLKKMGKLFAEQNKS
notes: α-ketoisovalerate decarboxylase (Kivd) from Lactococcus lactis with the substitution S286T; the structure section names residues up to 548; Stored with 2.5 mM MgSO4 and 0.1 mM ThDP; also called ST; not shown: H6-Ub, N-terminal, cleaved
Take B1: the “stoichiometry N” value is 4.

The values above are taken from paper PMC12312269, “Directed evolution of α-ketoisovalerate decarboxylase for improved isobutanol and 3-methyl-1-butanol production in cyanobacteria” (Biotechnology for Biofuels and Bioproducts, 2025).
